According to article PMC4275181, “Evolution of RNA-Protein Interactions: Non-Specific Binding Led to RNA Splicing Activity of Fungal Mitochondrial Tyrosyl-tRNA Synthetases”:

Legend:
CYT-18 NTDs = molecular target: T1, CYT-18 NTDs (Neurospora crassa, UniProt P12063 33-417); assay: filter binding; 25C; 100 mM KCl, 5 mM MgCl2, 20 mM Tris-HCl pH 7.5, 5 mM DTT, 0.1 mg/ml BSA, 10% glycerol, 5 pM RNA, 30 min, 25C or 37C; nitrocellulose/nylon filter; details: protein: recombinant; tags: N-terminal 6xHis, TEV-cleaved; extra N-terminal Gly; chain copies: 2; label: 5'-32P
T1 sequence: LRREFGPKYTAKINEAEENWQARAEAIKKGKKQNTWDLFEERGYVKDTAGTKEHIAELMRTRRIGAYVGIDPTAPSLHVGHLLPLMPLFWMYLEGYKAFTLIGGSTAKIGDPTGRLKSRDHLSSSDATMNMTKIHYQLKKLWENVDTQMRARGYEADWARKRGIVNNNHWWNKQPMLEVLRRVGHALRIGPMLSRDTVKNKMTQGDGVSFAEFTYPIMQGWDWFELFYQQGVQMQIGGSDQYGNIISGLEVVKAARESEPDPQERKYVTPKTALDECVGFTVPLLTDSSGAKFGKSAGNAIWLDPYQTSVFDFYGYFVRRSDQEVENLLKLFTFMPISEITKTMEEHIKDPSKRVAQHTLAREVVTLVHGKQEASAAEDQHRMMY

Sc CTD = molecular target: T2, Sc CTD (Saccharomyces cerevisiae, UniProt P48527 414-492); assay: filter binding; 25C; n=1.6; 100 mM KCl, 5 mM MgCl2, 20 mM Tris-HCl pH 7.5, 5 mM DTT, 0.1 mg/ml BSA, 10% glycerol, 5 pM RNA, 30 min, 25C or 37C; nitrocellulose/nylon filter; details: protein: recombinant; label: 5'-32P
T2 sequence: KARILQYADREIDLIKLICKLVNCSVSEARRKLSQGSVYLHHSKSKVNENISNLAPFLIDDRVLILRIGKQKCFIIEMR

UUUUUUUUUUUUUUUUUUUUUUUUUUUUUU (ssRNA) [poly(U)30]
binding result (CYT-18 NTDs): no binding
apparent K (half saturation) (Sc CTD): 1000 nM
